This note sets out measurements from US20230279151A1 (Sanofi, published 2023).

The target in test [1] is T1, human IL4 (IL004, Millipore) (human, UniProt P05112 25-153).
T1 construct: Commercial recombinant antigen; also called Antigen IL4
T1 sequence (looked up): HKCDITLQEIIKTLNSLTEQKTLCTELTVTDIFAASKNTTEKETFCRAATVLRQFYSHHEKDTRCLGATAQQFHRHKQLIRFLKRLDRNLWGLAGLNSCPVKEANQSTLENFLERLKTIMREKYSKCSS
Briefly: SPR, Biacore 3000, antibody captured by anti-human Fc, IL4 as analyte; HEK293-FS, co-expressed with hFurin (SEQ ID NO 37). As for the experimental part: (§1) Binding of antigens to the antibody constructs was measured using surface plasmon resonance (SPR) with a BlAcore 3000 instrument (GE Healthcare) with HBS-EP buffer (GE Healthcare). As antigens, human IL4 (IL004, Millipore) and human IL13 (IL012, Millipore) were used. The antihuman Fc capture antibody (human antibody capture kit, GE Life Sciences) was immobilized via primary amine groups (11000 RU) on a research grade CM5 chip (GE Life Sciences) using standard procedures. […] The tested antibody constructs were […] and injected at 100 nM concentration for 240 sec with a dissociation time of 300 sec at a flow rate of 30 µL/min. For human IL4 and IL13, a dilution series of 0.1 nM to 3 nM and 0.8 nM to 25 nM, respectively were used. Chip surfaces were regenerated with 2 min injects of the regeneration buffer provided with the capture kit. Sensorgrams were double-referenced with a blank chip surface and HBS-EP buffer blanks. Data analysis was performed using the BIAevaluation software v4.1.
(§2) The binding of the different bispecific Tandem-IgG constructs expressed in HEK293-FS or ExpiCHO cells as well as in vivo processed Tandem-IgG from the co-transfection with Furin variants was measured via surface plasmon resonance (SPR). The binding to the two human antigens IL4 and IL13 were compared to the binding characteristics of the individual monoclonal antibodies. […] In contrast, specific binding to IL13 was only detectable for in vivo processed Tandem-IgGs as well as the Tandem-lgG control comprising two LCs. […] Thus, processing of the linker sequence connecting the VLb (VL against IL13) at the inner position of the Tandem-lgG with the CK domain of the IL4 binding Fab at the outer position is required for a functional IL13 binding site. In vivo processing can thereby be mediated via endogenously expressed proteases or via co-transfected Furin variants.
For orientation: In SPR one partner is held on a chip, and binding of the other changes the refractive index at the surface.

The target of test [2] is T1, human IL4 (IL004, Millipore). As to the kind of experiment: SPR, Biacore 3000, antibody captured by anti-human Fc, IL4 as analyte; HEK293-FS, co-expressed with hFurin-KDEL (SEQ ID NO 38). As for the experimental part:
as §1, §2

The target is the same in test [3]. Briefly: SPR, Biacore 3000, antibody captured by anti-human Fc, IL4 as analyte; HEK293-FS expression, processed in vivo. As for the experimental part: as §1, §2
The target is the same in test [4]. As to the kind of experiment: SPR, Biacore 3000, antibody captured by anti-human Fc, IL4 as analyte; second block of the table (presumably ExpiCHO expression), processed in vivo. As for the experimental part:
as §1, §2

For test [5] the target is unchanged. Briefly: SPR, Biacore 3000, antibody captured by anti-human Fc, IL4 as analyte; HEK293-FS expression. As for the experimental part: as §1, §2

B1: sLC-Tandem-(anti-IL4xanti-IL13)-His8-PCL1-huIgG1 (bispecific antibody)
light: DIQMTQSPASLSVSVGDTITLTCHASQNIDVWLSWFQQKPGNIPKLLIYKASNLHTGVPSRFSGSGSGTGFTLTISSLQPEDIATYYCQQAHSYPFTFGGGTKLEIKRTVAAPSVFIFPPSDEQLKSGTASVVCLLNNFYPREAKVQWKVDNALQSGNSQESVTEQDSKDSTYSLSSTLTLSKADYEKHKVYACEVTHQGLSSPVTKSFNRGECRRKR
chain: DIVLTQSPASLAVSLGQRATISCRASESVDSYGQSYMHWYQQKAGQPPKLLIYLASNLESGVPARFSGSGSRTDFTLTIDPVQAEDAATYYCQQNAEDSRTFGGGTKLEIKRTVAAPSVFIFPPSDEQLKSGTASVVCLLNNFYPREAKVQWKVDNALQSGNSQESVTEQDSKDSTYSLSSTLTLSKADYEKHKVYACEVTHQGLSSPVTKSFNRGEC
heavy: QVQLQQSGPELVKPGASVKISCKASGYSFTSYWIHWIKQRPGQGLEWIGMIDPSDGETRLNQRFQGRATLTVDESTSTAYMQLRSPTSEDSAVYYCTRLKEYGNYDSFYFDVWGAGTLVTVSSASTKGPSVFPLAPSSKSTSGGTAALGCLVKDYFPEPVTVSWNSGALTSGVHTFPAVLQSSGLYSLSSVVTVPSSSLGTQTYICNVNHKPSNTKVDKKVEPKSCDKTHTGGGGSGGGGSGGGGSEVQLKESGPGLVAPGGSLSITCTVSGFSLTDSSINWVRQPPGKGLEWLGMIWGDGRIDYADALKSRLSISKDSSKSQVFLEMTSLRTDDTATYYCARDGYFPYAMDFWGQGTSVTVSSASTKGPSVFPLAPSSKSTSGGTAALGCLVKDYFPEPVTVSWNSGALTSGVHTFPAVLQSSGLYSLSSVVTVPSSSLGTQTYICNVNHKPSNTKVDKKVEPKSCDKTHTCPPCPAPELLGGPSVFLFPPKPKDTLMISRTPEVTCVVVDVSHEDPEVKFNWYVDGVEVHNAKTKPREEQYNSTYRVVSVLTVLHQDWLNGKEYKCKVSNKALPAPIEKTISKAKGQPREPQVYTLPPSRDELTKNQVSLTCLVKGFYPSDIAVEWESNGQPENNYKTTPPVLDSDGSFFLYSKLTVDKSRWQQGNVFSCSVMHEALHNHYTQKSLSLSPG
notes: In both the single light chain was processed in vivo; also called 17, 13 with 37; 17, 13 with 38
As a reminder, the Kd is the constant that tells how readily two partners part at equilibrium. High values mean lower affinity, low ones higher affinity. As a reminder, the koff is the first-order rate constant of dissociation. Read a low koff as a long-lived complex. What is called kon is the rate constant with which the complex forms. A low value points to slower complex formation. In test [1], B1 returned a Kd of 1.53 pM, a dissociation rate constant (koff) of 0.000211 s⁻¹ and a kon of 1.38e+08 M⁻¹ s⁻¹. In test [2], this molecule yielded a Kd of 1.86 pM, a koff of 0.000299 s⁻¹ and a kon of 1.61e+08 M⁻¹ s⁻¹.

B2: sLC-Tandem-(anti-IL4xanti-IL13)-PCL2-huIgG1 (bispecific antibody)
light: DIQMTQSPASLSVSVGDTITLTCHASQNIDVWLSWFQQKPGNIPKLLIYKASNLHTGVPSRFSGSGSGTGFTLTISSLQPEDIATYYCQQAHSYPFTFGGGTKLEIKRTVAAPSVFIFPPSDEQLKSGTASVVCLLNNFYPREAKVQWKVDNALQSGNSQESVTEQDSKDSTYSLSSTLTLSKADYEKHKVYACEVTHQGLSSPVTKSFNRGECHRRRKR
chain: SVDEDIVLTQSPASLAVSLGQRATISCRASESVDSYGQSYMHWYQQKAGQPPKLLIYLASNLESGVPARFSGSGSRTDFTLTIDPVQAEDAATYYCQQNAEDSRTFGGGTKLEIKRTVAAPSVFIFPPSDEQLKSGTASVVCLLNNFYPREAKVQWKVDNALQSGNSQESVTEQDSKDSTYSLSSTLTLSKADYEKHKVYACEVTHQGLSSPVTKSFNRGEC
heavy: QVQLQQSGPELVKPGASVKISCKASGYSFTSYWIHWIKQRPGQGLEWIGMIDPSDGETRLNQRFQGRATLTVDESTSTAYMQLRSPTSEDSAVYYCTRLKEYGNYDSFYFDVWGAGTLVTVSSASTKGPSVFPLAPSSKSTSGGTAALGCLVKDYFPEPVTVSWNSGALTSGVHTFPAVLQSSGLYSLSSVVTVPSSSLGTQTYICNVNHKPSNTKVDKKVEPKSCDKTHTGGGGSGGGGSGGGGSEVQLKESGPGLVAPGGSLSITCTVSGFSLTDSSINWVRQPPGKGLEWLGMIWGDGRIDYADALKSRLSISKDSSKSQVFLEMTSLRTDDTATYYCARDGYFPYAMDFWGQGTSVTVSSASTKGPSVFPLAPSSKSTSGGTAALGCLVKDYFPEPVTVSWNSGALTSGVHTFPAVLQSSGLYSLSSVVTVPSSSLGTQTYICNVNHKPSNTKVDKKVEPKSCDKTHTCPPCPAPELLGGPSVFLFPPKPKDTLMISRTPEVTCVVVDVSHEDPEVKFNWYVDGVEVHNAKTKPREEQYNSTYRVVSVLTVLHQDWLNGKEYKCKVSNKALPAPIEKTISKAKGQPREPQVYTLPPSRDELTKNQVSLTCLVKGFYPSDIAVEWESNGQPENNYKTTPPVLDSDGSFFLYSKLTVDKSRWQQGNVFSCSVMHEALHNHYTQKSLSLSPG
notes: also called sLC-PCL2-Tandem-IgG; sLC Tandem-IgG-PCL2
Turning to B2, in test [3], the Kd was 1.05 pM, the koff is 0.000189 s⁻¹ and the kon was determined as 1.79e+08 M⁻¹ s⁻¹. Also, in test [4], the Kd came to 1.33 pM, the koff turned out to be 0.000249 s⁻¹ and the kon was determined as 1.87e+08 M⁻¹ s⁻¹.

B3: Tandem-(anti-IL4xanti-IL13)-huIgG1 (bispecific antibody)
light 1: DIQMTQSPASLSVSVGDTITLTCHASQNIDVWLSWFQQKPGNIPKLLIYKASNLHTGVPSRFSGSGSGTGFTLTISSLQPEDIATYYCQQAHSYPFTFGGGTKLEIKRTVAAPSVFIFPPSDEQLKSGTASVVCLLNNFYPREAKVQWKVDNALQSGNSQESVTEQDSKDSTYSLSSTLTLSKADYEKHKVYACEVTHQGLSSPVTKSFNRGEC
light 2: not shown
heavy: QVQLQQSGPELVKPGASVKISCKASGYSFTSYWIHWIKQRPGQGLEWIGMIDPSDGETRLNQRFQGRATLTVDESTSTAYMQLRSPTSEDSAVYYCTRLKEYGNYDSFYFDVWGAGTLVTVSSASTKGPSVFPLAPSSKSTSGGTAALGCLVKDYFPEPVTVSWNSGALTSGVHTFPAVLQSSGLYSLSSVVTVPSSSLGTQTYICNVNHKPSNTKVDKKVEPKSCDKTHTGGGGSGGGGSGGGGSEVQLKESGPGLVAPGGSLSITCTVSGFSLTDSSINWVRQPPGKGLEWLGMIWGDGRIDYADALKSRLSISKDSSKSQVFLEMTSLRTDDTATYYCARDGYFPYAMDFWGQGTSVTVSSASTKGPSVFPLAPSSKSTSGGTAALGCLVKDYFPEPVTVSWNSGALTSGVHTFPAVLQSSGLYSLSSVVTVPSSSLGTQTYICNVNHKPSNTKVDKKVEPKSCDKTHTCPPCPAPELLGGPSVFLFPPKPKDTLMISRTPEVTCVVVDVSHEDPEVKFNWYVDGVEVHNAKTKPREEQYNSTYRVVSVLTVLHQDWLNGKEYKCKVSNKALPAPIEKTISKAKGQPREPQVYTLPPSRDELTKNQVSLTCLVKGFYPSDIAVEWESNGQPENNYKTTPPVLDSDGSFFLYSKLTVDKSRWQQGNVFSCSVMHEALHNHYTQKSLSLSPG
notes: Control with the two light chains expressed as separate chains; also called Tandem-IgG control; control Tandem-IgG
In test [5], B3 returned a dissociation constant (Kd) of 2.32 pM, a dissociation rate constant (koff) of 0.000149 s⁻¹ and a kon of 6.39e+07 M⁻¹ s⁻¹.
